US20140322196A1

What was measured:
[1] = target: Hemagglutinin (HA) of Avian 29/05/06 H5N1 (inactivated vaccine) (Influenza A virus Avian 29/05/06 H5N1); test: cell-based or functional assay
[2] = target: Hemagglutinin (HA) of Influenza SW [change] 1089/09 swine pandemic H1N1 (inactivated subunits, vaccine) (Influenza A virus SW [change] swine pandemic H1N1); test: cell-based or functional assay

| Substance | HI titre [1] | HI titre [2] |
| --- | --- | --- |
| Lactoferrin from bovine milk (bLf) (from UniProt P24627 20-708) | 2900 fM | 46.5 fM |
| … (SEQ ID NO: 1), bLf C-lobe peptide 418-429 | 18 fM | 5.8 fM |
| … (SEQ ID NO: 2), bLf C-lobe peptide 506-522 | 70 fM | 46 fM |
